Decrease in efficacy (Emax) vs WT CXCR4 and efficacy (Emax) remaining, % of WT CXCR4 data for one substance are collected here from PMC7437921.

Holding throughout (experiment): FRET or BRET
Assay [1] deals with CXCR4(R30Q) (human) (UniProt P61073).
Assay [2] addresses CXCR4(Δ1–25), HA-free (tagless) (human) (UniProt P61073).
Assay [3] has as its target CXCR4(D187A) (human) (UniProt P61073).
Assay [4] has as its target CXCR4(Δ1–15), HA-free (tagless) (human) (UniProt P61073).

Substance renilla GFP fused to mini-Gαsi showed a decrease in efficacy (Emax) vs WT CXCR4 in assay [1] of 30%. Moreover, the efficacy (Emax) remaining, % of WT CXCR4 in assay [2] was found to be 23%; in assay [3], 30%; in assay [4], 33%.
